From patent publication USRE41461E1, “Purification, composition and specificity of Heparinase I, II, and III from Flavobacterium heparinum” (Massachusetts Institute of Technology, priority 1992, dated 2010)
Entries after “also recorded” stand apart in the source; their conditions may differ.

Tests used:
[1] = Stability toward storage, freeze thawing and lyophilization; format: physicochemical
Protocol: […] […] These lyase solutions were then divided into 3 equal aliquots, and one of each was subjected to either freeze thawing, lyophilization, or retained as a control in an ice bath. The activities of heparin lyases I-III were determined in the presence and absence of excipients after: 1) brief storage at 4° C.; 2) freezing at −70° C. and thawing; and 3) −70° C. freezing, lyophilization, and reconstituting with an equal volume of cold water.

[2] = Heparin lyase activity: effect of divalent metals and added salt, substrate specificity (each lyase on its substrates); format: biochemical; conditions: for effect of calcium on activity (increase): 10 mM calcium chloride, 50 mM BTP-HCl; for effect of added salt on activity: increasing salt concentration, 0-500 mM
Protocol: The spectrophotometer was adjusted to the optimum temperature of the particular lyase being assayed. A 700 μl quartz microcuvette containing 400 μg of substrate in 50 mM sodium phosphate buffer (containing 100 mM sodium chloride for heparin lyase I) was thermally equilibrated. A measured quantity of lyase was added, bringing the final volume to 400 μl and the cuvette was gently mixed. The microcuvette was then immediately returned to the spectrophotometer and the change of absorbance at 232 nm was measured at 10 seconds intervals over 3 min. The activity was measured from the change of absorbance/unit time using an extinction coefficient of 3800 M^−1 for products. The specific activity was then calculated by dividing the micromoles of product produced per minute by the milligrams of protein in the cuvette. The molecular weights used for heparin, heparan sulfate, and the chondroitin sulfates were 14,000, 20,000 and 25,000, respectively, Rice, K. G., and Linhardt, R. J. (1989) Carbohydr. Res. 190, 219-233. Protein concentration was measured by the Bradford assay, Bradford, M. M. (1976) Anal. Biochem. 72, 248-254, based on a bovine serum albumin standard curve.
BTP-HCl buffer (50 mM) was prepared containing either 10 mM calcium chloride, 10 μM or 1 mM copper (II) chloride, 10 μM and 1 mM mercury (II) chloride, and 1 mM zinc (II) chloride. Each solution was adjusted to the optimum pH for the lyase being tested, and the activity of the heparin lyases was measured in the presence and absence of divalent metals.
The salt concentration for optimum activity was investigated. Sodium chloride, potassium chloride, and sodium and potassium acetate were used to differentiate between ionic strength and specific ion affects. Added salt concentrations varied between 0 and 500 mM and were prepared in 50 mM sodium phosphate buffer after which the pH was adjusted to each enzyme's optimum and the heparin lyase activity was measured.
Each heparin lyase was added to a solution of complex polysaccharides (1 mg/ml) under optimized assay conditions, and the reaction was monitored at 232 nm for 30 min. The amount of purified lyase used was sufficient for complete depolymerization of heparin or heparan sulfate substrates within 30 min. The initial rate of depolymerization of each polysaccharide was measured, the reaction was then continued for 24 h, and the final level of polysaccharide depolymerization was assessed by measuring the final absorbance at 232 nm and expressed as percent activity.

[3] = Temperature stability of lyase activity; format: physicochemical; conditions: for time in which 80% of activity was lost: protein 650 ng/ml
Protocol: Lyase assay stock solutions were prepared in the appropriate buffer and placed in water baths at the following temperatures: heparin lyase I at 30° C., heparin lyase II at 35° C., and heparin lyase III at both 35° and 40° C. […]

[4] = Isoelectric focusing on agarose gel; format: physicochemical; conditions: agarose IEF
Protocol: IEF gel electrophoresis was run on pre-cast agarose gels (85×100 mm). Two electrode wicks were wetted with 1M phosphoric acid (anolyte) and 1M sodium hydroxide (catholyte). Electrophoresis was at 5 watts for 5 min, then at 10 watts for 1 h until the voltage was constant at 1200 V. The gel was immediately fixed in 15% aqueous trichloroacetic acid, blotted and rinsed with water, dried overnight, stained by using Coomassie G-250, and destained.

[5] = Activity remaining after incubation in buffers for 24 h at 37° C.; format: physicochemical
Protocol: The buffer giving optimum activity for each heparin lyase was selected by testing buffers with buffering capacity near the pH optima calculated in the previous experiments. These buffers were: Tris-HCl, sodium phosphate, HEPES, MOPS, TES, and BTP-CHl. Each buffer was prepared at 50 mM, and its pH was adjusted with hydrochloric acid or sodium hydroxide to 6.9 for heparin lyase II acting on heparin, 7.15 for heparin lyase I, 7.3 for heparin lyase II acting on heparan sulfate, and 7.6 for heparin lyase III. The heparin lyase assay solutions were made by diluting enzyme in 50 mM sodium phosphate buffer adjusted to the appropriate pH as previously described. Heparin lyase activity was determined in each buffer. Activity was assayed both immediately after addition to each buffer and following incubation for 24 h at 37° C.

B1: Heparin lyase III: heparin lyase III (heparitinase EC 4.2.2.8) purified to homogeneity from Flavobacterium heparinum (protein, UniProt Q59289 25-659, looked up)
Heparin-sulfate lyase: QSSSITRKDFDHINLEYSGLEKVNKAVAAGNYDDAAKALLAYYREKSKAREPDFSNAEKPADIRQPIDKVTREMADKALVHQFQPHKGYGYFDYGKDINWQMWPVKDNEVRWQLHRVKWWQAMALVYHATGDEKYAREWVYQYSDWARKNPLGLSQDNDKFVWRPLEVSDRVQSLPPTFSLFVNSPAFTPAFLMEFLNSYHQQADYLSTHYAEQGNHRLFEAQRNLFAGVSFPEFKDSPRWRQTGISVLNTEIKKQVYADGMQFELSPIYHVAAIDIFLKAYGSAKRVNLEKEFPQSYVQTVENMIMALISISLPDYNTPMFGDSWITDKNFRMAQFASWARVFPANQAIKYFATDGKQGKAPNFLSKALSNAGFYTFRSGWDKNATVMVLKASPPGEFHAQPDNGTFELFIKGRNFTPDAGVFVYSGDEAIMKLRNWYRQTRIHSTLTLDNQNMVITKARQNKWETGNNLDVLTYTNPSYPNLDHQRSVLFINKKYFLVIDRAIGEATGNLGVHWQLKEDSNPVFDKTKNRVYTTYRDGNNLMIQSLNADRTSLNEEEGKVSYVYNKELKRPAFVFEKPKKNAGTQNFVSIVYPYDGQKAPEISIRENKGNDFEKGKLNLTLTINGKQQLVLVP
- activity retained ([1]; absence of excipient, stored at 4° C.): retains most of its activity
- retention of activity ([1]; addition of 5% lactose): destabilizes
- activity lost ([1]; on freeze-thawing or freeze-drying): 70-80%
- increase of recovered activity ([1]; presence of BSA): 20-25%
- substrates acted on [2]: acts only on heparan sulfate
- effect of copper on activity ([2]; 10 μM copper (II) chloride): unaffected
- effect of mercury on activity ([2]; 10 μM mercury (II) chloride): unaffected
- effect of copper on activity ([2]; 1 mM copper (II) chloride): inhibited
- effect of mercury on activity ([2]; 1 mM mercury (II) chloride): inhibited
- effect of zinc on activity ([2]; 1 mM zinc (II) chloride): inhibited
- effect of calcium on activity (increase) [2]: 20%
- effect of added salt on activity [2]: decrease in activity; also recorded: decreases
- effect of added salt on activity ([2]; listed as heparinase III): not observed
- time in which 80% of activity was lost ([3]; 35° C.): 3.5 h
- time in which 80% of activity was lost ([3]; 40° C.): 0.5 h
- pI (isoelectric point) [4]: ~9.2
- pI (isoelectric point) ([4]; listed as heparin lyase III): 9.9-10.1
- retention of activity after incubation ([5]; MOPS and HEPES): 15-30%

B2: Heparin lyase II: heparin lyase II (heparinase II, no EC number) purified to homogeneity from Flavobacterium heparinum (protein, UniProt C6XZB6 26-772, looked up)
Heparin and heparin-sulfate …: QTKADVVWKDVDGVSMPIPPKTHPRLYLREQQVPDLKNRMNDPKLKKVWADMIKMQEDWKPADIPEVKDFRFYFNQKGLTVRVELMALNYLMTKDPKVGREAITSIIDTLETATFKPAGDISRGIGLFMVTGAIVYDWCYDQLKPEEKTRFVKAFVRLAKMLECGYPPVKDKSIVGHASEWMIMRDLLSVGIAIYDEFPEMYNLAAGRFFKEHLVARNWFYPSHNYHQGMSYLNVRFTNDLFALWILDRMGAGNVFNPGQQFILYDAIYKRRPDGQILAGGDVDYSRKKPKYYTMPALLAGSYYKDEYLNYEFLKDPNVEPHCKLFEFLWRDTQLGSRKPDDLPLSRYSGSPFGWMIARTGWGPESVIAEMKVNEYSFLNHQHQDAGAFQIYYKGPLAIDAGSYTGSSGGYNSPHNKNFFKRTIAHNSLLIYDPKETFSSSGYGGSDHTDFAANDGGQRLPGKGWIAPRDLKEMLAGDFRTGKILAQGFGPDNQTPDYTYLKGDITAAYSAKVKEVKRSFLFLNLKDAKVPAAMIVFDKVVASNPDFKKFWLLHSIEQPEIKGNQITIKRTKNGDSGMLVNTALLPDAANSNITSIGGKGKDFWVFGTNYTNDPKPGTDEALERGEWRVEITPKKAAAEDYYLNVIQIADNTQQKLHEVKRIDGDKVVGVQLADRIVTFSKTSETVDRPFGFSVVGKGTFKFVMTDLLPGTWQVLKDGKILYPALSAKGDDGALYFEGTEGTYRFLR
- activity retained ([1]; under all storage conditions): greater than 75%
- substrates acted on [2]: act on both heparin and heparan sulfate
- effect of calcium on activity (increase) [2]: dramatically reduced
- effect of divalent metal ions on activity (all metals tested) ([2]; acting on both heparin and heparan sulfate): inhibition by all of the metals tested except for 10 μM copper
- effect of added salt on activity [2]: decrease in activity; also recorded: decreases
- effect of added salt on activity ([2]; listed as heparinase II): not observed
- activity retained ([3]; 25 h at 35° C., protein 1-2 μg/ml, on both heparin and heparan sulfate): 70%
- pI (isoelectric point) [4]: around 8.9
- pI (isoelectric point) ([4]; listed as heparin lyase II): 8.9-9.1
- retention of activity after incubation ([5]; MOPS, TES, and HEPES, toward both heparin and heparan sulfate): 30-70%
